Patent publication US20090318349A1 (Novo Nordisk, published 2009)
Residue numbers refer to the chain shown, from its start.

B1: AlaPro-mTGase from S. mobaraensis (enzyme)
chain: APDSDDRVTPPAEPLDRMPDPYRPSYGRAETVVNNYIRKWQQVYSHRDGRKQQMTEEQREWLSYGCVGVTWVNSGQYPTNRLAFASFDEDRFKNELKNGRPRSGETRAEFEGRVAKESFDEEKGFQRAREVASVMNRALENAHDESAYLDNLKKELANGNDALRNEDARSPFYSALRNTPSFKERNGGNHDPSRMKAVIYSKHFWSGQDRSSSADKRKYGDPDAFRPAPGTGLVDMSRDRNIPRSPTSPGEGFVNFDYGWFGAQTEADADKTVWTHGNHYHAPNGSLGAMHVYESKFRNWSEGYSDFDRGAYVITFIPKSWNTAPDKVKQGWP
B2: GlyPro-mTGase from S. ladakanum (enzyme)
chain: GPDSDERVTPPAEPLDRMPDPYRPSYGRAETIVNNYIRKWQQVYSHRDGRKQQMTEEQREWLSYGCVGVTWVNSGQYPTNRLAFAFFDEDKYKNELKNGRPRSGETRAEFEGRVAKDSFDEAKGFQRARDVASVMNKALENAHDEGAYLDNLKKELANGNDALRNEDARSPFYSALRNTPSFKDRNGGNHDPSKMKAVIYSKHFWSGQDRSGSSDKRKYGDPEAFRPDRGTGLVDMSRDRNIPRSPTSPGESFVNFDYGWFGAQTEADADKTVWTHGNHYHAPNGSLGAMHVYESKFRNWSDGYSDFDRGAYVVTFVPKSWNTAPDKVKQGWP
B3: GlyPro-mTGase_Y62H_Y75F from S. ladakanum (enzyme)
chain: B2 chain with Y64H, Y77F, K329T
B4: GlyPro-mTGase_Y75A from S. ladakanum (enzyme)
chain: B2 chain with Y77A
B5: GlyPro-mTGase_Y75F from S. ladakanum (enzyme)
chain: B2 chain with Y77F
B6: GlyPro-mTGase_Y75N from S. ladakanum (enzyme)
chain: B2 chain with Y77N
B7: GlyPro-mTGase_Y62H_Y75N from S. ladakanum (enzyme)
chain: B2 chain with Y64H, Y77N

These binders were tested against wild type human growth hormone (human, UniProt P01241 27-217) (assay: cell-based or functional assay).
Chain of wild type human growth hormone (P01241 27-217): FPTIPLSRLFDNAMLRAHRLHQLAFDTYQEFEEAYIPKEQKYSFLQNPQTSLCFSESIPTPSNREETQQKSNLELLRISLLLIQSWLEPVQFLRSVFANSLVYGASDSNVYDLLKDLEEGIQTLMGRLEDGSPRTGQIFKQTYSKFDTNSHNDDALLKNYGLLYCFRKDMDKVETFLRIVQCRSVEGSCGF
With B1 the “RS (relative selectivity)” value was 1 and the “Selectivity (Q141/Q40), CE” value was 5.7.
With B2 the “RS (relative selectivity)” value was 1.8 and the “Selectivity (Q141/Q40), CE” value was 10.3.
For B3, the “RS (relative selectivity)” value was 6.4 and the “Selectivity (Q141/Q40), CE” value was 36.2.
In the case of B4, the “RS (relative selectivity)” value is reported as 3 and the “Selectivity (Q141/Q40), CE” value is reported as 17.3.
B5 was tested, and the “RS (relative selectivity)” value was 5.1 and the “Selectivity (Q141/Q40), CE” value was 29.1.
B6 was tested, and the “RS (relative selectivity)” value was 3.4 and the “Selectivity (Q141/Q40), CE” value was 19.3.
In the case of B7, the “RS (relative selectivity)” value is reported as 4.6 and the “Selectivity (Q141/Q40), CE” value is reported as 26.3.
